± gives the standard deviation of the averaged measurements.
Tested on: Saccharomyces cerevisiae
Assay: protein stability index of tFT-peptide fusion (C-terminal peptide) (PSI (0-1 scale)); higher = more stable (slower turnover)
Conditions: genetic background: wild type; temperature: 30 C
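Further: PSI is a weighted mean of sequencing reads over stability bins, variants kept only with over 10 reads, mCherry proximal and sfGFP distal, peptide attached via GGGS linker.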

In order of falling protein stability index:
1. TLWWRQPFWGFG  0.722 ± 0.042
2. VRGLGFRWVWGW  0.711 ± 0.038
3. WSLPPLLSPLYF  0.667 ± 0.34
4. VCLVAGVFFCLL  0.629 ± 0.24
5. VDVWRWRGLRVG  0.555 ± 0.11
6. VFSGVTTILVRT  0.539 ± 0.11
7. WNIVKHREDMLS  0.524 ± 0.14
8. VSWWRGVYVVLF  0.518 ± 0.039
9. VSLIYKTIKNRV  0.517 ± 0.057
10. VSLSEVAIIVHG  0.517 ± 0.026
11. VRHPVVVVRRVI  0.508 ± 0.055
12. VFSFGLLFQVCR  0.502 ± 0.019
13. VRFGYGRIVWDI  0.5 ± 0.1
14. VFAWSLYLRWAW  0.489 ± 0.015
15. TSRRPFVLVMWL  0.485 ± 0.015
16. VGVVVAIGLVRM  0.4849 ± 0.0037
17. VMLFYVGSGVVS  0.485 ± 0.11
18. VGIFKVCALVLR  0.483 ± 0.0098
19. VTEGMKEVIKQI  0.482 ± 0.0079
20. VCCSILFSAFLV  0.475 ± 0.041
21. VISVFAISTRVD  0.475 ± 0.0055
22. WFLVFLRVGDGP  0.474 ± 0.01
23. VAGGFWCWGMVG  0.4642 ± 0.0023
24. VWWWGAVGWLMV  0.454 ± 0.0008
25. VFSLFLVLNYPF  0.446 ± 0.037
26. YFTNCYRSILTF  0.4436 ± 0.00083
27. WVLSRAAFVFFF  0.44 ± 0.018
28. VSFFCLICRVYP  0.434 ± 0.099
29. WLCLGLVVGLFL  0.433 ± 0.041
30. TTATLSFAICAV  0.4276 ± 0.0029
31. VRRFNVLLYVRG  0.425 ± 0.0063
32. VFFSLSLILFPF  0.419 ± 0.013
33. VIFFEFFLSFGE  0.413 ± 0.0071
34. WKNIHGVFVFVM  0.403 ± 0.012
35. VFFVLAVVGADA  0.397 ± 0.045
36. WLLSFLRFLVLR  0.393 ± 0.029
37. YLCFVVSCGVLR  0.383 ± 0.086
38. WLYPVFKISYCV  0.381 ± 0.014
39. VVGILVLASWDL  0.376 ± 0.045
40. VCVAVCFVMCGG  0.3721 ± 0.0011
41. VGVSCVVCVCGV  0.3704 ± 0.0011
42. VIRIRLSCSVDV  0.367 ± 0.026
43. VFFFNALFCFFC  0.35 ± 0.0075
44. VKVKMKIIIIIK  0.341 ± 0.0073
45. YGWILQLPCFVI  0.338 ± 0.0082
46. YHDKLRAIEKFF  0.331 ± 0.065
47. VVLWVVCWGCWK  0.328 ± 0.027
48. YAFSTCTILIRF  0.328 ± 0.048
49. VLGFRPLVFLCF  0.3239 ± 0.0027
50. TYKHIVRVNKCE  0.318 ± 0.04
51. WVVLVCGFVLLG  0.3175 ± 0.0027
52. VARWVYALGLLC  0.312 ± 0.013
53. WCVRRVRFVMGC  0.31 ± 0.0046
54. VSLHVFVFLLAS  0.309 ± 0.043
55. VLRLLARRHAMV  0.308 ± 0.017
56. VRTFAVSCLCVC  0.301 ± 0.0037
57. VPGCLGRFLFFL  0.29 ± 0.024
58. WVCCFVWGCLIR  0.281 ± 0.0081
59. VVFVFIDLGLCV  0.266 ± 0.007
60. WLVCAGWVVLSC  0.265 ± 0.033
61. VGGLGWCWVCMA  0.25 ± 0.016
62. WLCWVVWFPGLF  0.244 ± 0.035
63. VCDPWVFIRCLV  0.234 ± 0.1
64. WLFFVVLPVKAF  0.231 ± 0.0071
65. VCVWVDILAFCS  0.227 ± 0.05
66. VSIRVVVWVSWG  0.226 ± 0.032
67. TYSVIPSLALLP  0.224 ± 0.051
68. VVSLAVVGRFLV  0.2243 ± 0.0017
69. VFLFSLLIVFFP  0.219 ± 0.075
70. VIVQSWEIIRLN  0.21 ± 0.018
71. VVDIFLFFLFVC  0.203 ± 0.015
72. VWSCILPMVYVW  0.203 ± 0.0046
73. VICSLFRYIMRL  0.199 ± 0.0043
74. VFLLLSLSVFFE  0.1721 ± 0.0014
75. VVFVRLGWMRAC  0.172 ± 0.046
76. VLRACCDWGFLV  0.161 ± 0.02
77. VVLWTFLLEVSA  0.134 ± 0.034
78. VVVFRWTCWLLV  0.0581 ± 0.028

Tested on: Saccharomyces cerevisiae
Assay: as above
Conditions: genetic background: cdc34-1; temperature: 37 C
Description: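 MPS profiling in S. cerevisiae of the tFT-X12 degron library: putative degron peptides plus stable controls, 12 aa, fused to the C-terminus of a sfGFP-mCherry timer. Cells are FACS-sorted into 8 mCherry/sfGFP bins and deep-sequenced. PSI runs from 0 (unstable) to 1 (stable). Backgrounds are wild type, das1Δ and doa10Δ at 30 °C, and wild type, das1Δ, cdc34-1 and cdc53-1 at 37 °C; 2-3 technical replicates each.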

In order of rising protein stability index:
1. VVLWTFLLEVSA  0.0259 ± 0.011
2. VFLLLSLSVFFE  0.0371 ± 0.0054
3. VVVFRWTCWLLV  0.0544 ± 0.005
4. WLFFVVLPVKAF  0.0666 ± 0.0023
5. VCVWVDILAFCS  0.0795 ± 0.016
6. VRTFAVSCLCVC  0.0897 ± 0.018
7. VWSCILPMVYVW  0.111 ± 0.066
8. WLLSFLRFLVLR  0.124 ± 0.015
9. VSIRVVVWVSWG  0.133 ± 0.0081
10. WLVCAGWVVLSC  0.153 ± 0.0026
11. VVDIFLFFLFVC  0.171 ± 0.0036
12. VVGILVLASWDL  0.184 ± 0.011
13. VVFVFIDLGLCV  0.187 ± 0.0053
14. YAFSTCTILIRF  0.187 ± 0.0071
15. WVCCFVWGCLIR  0.2 ± 0.044
16. VFLFSLLIVFFP  0.213 ± 0.0089
17. VLGFRPLVFLCF  0.235 ± 0.058
18. VVLWVVCWGCWK  0.237 ± 0.05
19. VKVKMKIIIIIK  0.243 ± 0.16
20. WVVLVCGFVLLG  0.246 ± 0.0069
21. YGWILQLPCFVI  0.246 ± 0.02
22. VSLHVFVFLLAS  0.255 ± 0.02
23. VIFFEFFLSFGE  0.267 ± 0.0089
24. VFAWSLYLRWAW  0.2813 ± 0.0012
25. VFSLFLVLNYPF  0.302 ± 0.046
26. VGIFKVCALVLR  0.325 ± 0.019
27. VIRIRLSCSVDV  0.326 ± 0.04
28. VCVAVCFVMCGG  0.36 ± 0.022
29. VSFFCLICRVYP  0.371 ± 0.0078
30. VFFVLAVVGADA  0.383 ± 0.044
31. WLCWVVWFPGLF  0.395 ± 0.035
32. TTATLSFAICAV  0.412 ± 0.01
33. VICSLFRYIMRL  0.414 ± 0.021
34. WCVRRVRFVMGC  0.414 ± 0.019
35. VCDPWVFIRCLV  0.418 ± 0.015
36. YLCFVVSCGVLR  0.421 ± 0.0051
37. VFFSLSLILFPF  0.431 ± 0.037
38. YFTNCYRSILTF  0.4366 ± 0.0011
39. WLCLGLVVGLFL  0.44 ± 0.0069
40. VVFVRLGWMRAC  0.441 ± 0.034
41. VRRFNVLLYVRG  0.459 ± 0.029
42. VISVFAISTRVD  0.489 ± 0.076
43. WLYPVFKISYCV  0.492 ± 0.0089
44. VGVSCVVCVCGV  0.493 ± 0.0071
45. VCLVAGVFFCLL  0.5 ± 0.018
46. VSWWRGVYVVLF  0.503 ± 0.019
47. TSRRPFVLVMWL  0.504 ± 0.0061
48. VGVVVAIGLVRM  0.508 ± 0.013
49. VFFFNALFCFFC  0.523 ± 0.039
50. VLRACCDWGFLV  0.53 ± 0.0055
51. WFLVFLRVGDGP  0.539 ± 0.01
52. VSLSEVAIIVHG  0.544 ± 0.025
53. WKNIHGVFVFVM  0.5472 ± 0.001
54. VIVQSWEIIRLN  0.553 ± 0.055
55. VWWWGAVGWLMV  0.572 ± 0.036
56. VGGLGWCWVCMA  0.573 ± 0.041
57. VLRLLARRHAMV  0.577 ± 0.036
58. VFSGVTTILVRT  0.578 ± 0.05
59. VARWVYALGLLC  0.581 ± 0.035
60. WVLSRAAFVFFF  0.587 ± 0.04
61. TYKHIVRVNKCE  0.594 ± 0.031
62. VPGCLGRFLFFL  0.594 ± 0.025
63. VFSFGLLFQVCR  0.598 ± 0.04
64. VCCSILFSAFLV  0.614 ± 0.088
65. VVSLAVVGRFLV  0.616 ± 0.061
66. VDVWRWRGLRVG  0.635 ± 0.029
67. VTEGMKEVIKQI  0.647 ± 0.014
68. VMLFYVGSGVVS  0.654 ± 0.053
69. VRHPVVVVRRVI  0.663 ± 0.017
70. TYSVIPSLALLP  0.664 ± 0.03
71. YHDKLRAIEKFF  0.669 ± 0.03
72. VSLIYKTIKNRV  0.6704 ± 0.0033
73. WNIVKHREDMLS  0.685 ± 0.013
74. VRFGYGRIVWDI  0.706 ± 0.035
75. WSLPPLLSPLYF  0.717 ± 0.035
76. VAGGFWCWGMVG  0.718 ± 0.034
77. TLWWRQPFWGFG  0.731 ± 0.038
78. VRGLGFRWVWGW  0.747 ± 0.034
